Common to all, as to details: protein: recombinant; tags: 6xHis; blunt
The target in data set [1] is T1, E2F1 (Homo sapiens? (cDNA amplified, Huh7.5.1 …, UniProt Q01094 1-437)). The experiment in a line: EMSA; E2F1 50-400 nM, probe 10 nM; EMSA binding buffer (Beyotime GS005; composition and pH not given), room temperature, 30 min; 8% TBE agarose gel as stated, on ice, 80 V 1.5 h.
For data set [2], the target named is T1, E2F1. Description: competition; 10 uM unlabeled competitor vs 10 nM FAM-labeled N1; interaction abrogated; EMSA binding buffer (Beyotime GS005; composition and pH not given), room temperature, 30 min; 8% TBE agarose gel as stated, on ice, 80 V 1.5 h. Background: Mobility shift assays separate free from complexed probe on a gel.
For data set [3], the target named is T1, E2F1. The experiment in a line: EMSA; probe 10 nM; EMSA binding buffer (Beyotime GS005; composition and pH not given), room temperature, 30 min; 8% TBE agarose gel as stated, on ice, 80 V 1.5 h.

T1 sequence (Q01094 whole entry): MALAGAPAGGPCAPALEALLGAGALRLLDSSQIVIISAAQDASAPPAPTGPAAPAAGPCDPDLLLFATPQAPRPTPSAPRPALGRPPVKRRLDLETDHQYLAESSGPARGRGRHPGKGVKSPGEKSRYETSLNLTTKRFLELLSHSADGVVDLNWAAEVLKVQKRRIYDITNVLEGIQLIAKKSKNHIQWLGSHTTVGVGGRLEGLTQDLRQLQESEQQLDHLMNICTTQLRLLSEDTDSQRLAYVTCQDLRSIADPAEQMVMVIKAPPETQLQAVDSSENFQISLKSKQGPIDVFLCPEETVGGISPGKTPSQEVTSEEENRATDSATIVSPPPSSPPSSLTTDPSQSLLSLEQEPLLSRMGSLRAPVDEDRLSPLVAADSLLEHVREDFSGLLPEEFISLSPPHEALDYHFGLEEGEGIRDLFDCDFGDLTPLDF

B1: NSUN2-Promoter-probe (dsDNA)
DNA 1: CTGACGATTGCGCGCGAAGACCGCGCAGCCCA
DNA 2: TGGGCTGCGCGGTCTTCGCGCGCAATCGTCAG
Regarding B1, in data set [1], the binding result is listed as “binds”.

B2: NSUN2-Promoter-probe, unlabeled competitor (dsDNA)
DNA 1: CTGACGATTGCGCGCGAAGACCGCGCAGCCCA
DNA 2: TGGGCTGCGCGGTCTTCGCGCGCAATCGTCAG
Regarding B2, in data set [2], the binding result was “binds”.

B3: NSUN2-Promoter-Mut-probe (dsDNA)
DNA 1: CTGACGATGGGATTCTTTGACCGCGCAGCCCA
DNA 2: TGGGCTGCGCGGTCAAAGAATCCCATCGTCAG
With B3, the binding result in data set [3] is listed as “no binding”.
